Assay results taken from patent US8999727.

Key:
[1] = biological target: truncated TSH receptor chimera B (extracellular portion) fused with the secretory alkaline phosphatase (human TSHR with rat LH-CGR subsequence); assay: bridge assay: standard at 0.6 IU/L on plate-bound TSH receptor chimera B, detected with SEAP-chimera B, chemiluminescence
[2] = biological target: truncated TSH receptor chimera B (extracellular portion) fused with the secretory alkaline phosphatase (human TSHR with rat LH-CGR subsequence); assay: bridge assay: standard at 30.0 IU/L on plate-bound TSH receptor chimera B, detected with SEAP-chimera B, chemiluminescence
[3] = biological target: truncated TSH receptor chimera B (extracellular portion) fused with the secretory alkaline phosphatase (human TSHR with rat LH-CGR subsequence); assay: bridge assay: standard at 1.0 IU/L on plate-bound TSH receptor chimera B, detected with SEAP-chimera B, chemiluminescence
[4] = biological target: truncated TSH receptor chimera B (extracellular portion) fused with the secretory alkaline phosphatase (human TSHR with rat LH-CGR subsequence); assay: bridge assay: standard at 15.0 IU/L on plate-bound TSH receptor chimera B, detected with SEAP-chimera B; RLU relative to zero serum
[5] = biological target: truncated TSH receptor chimera B (extracellular portion) fused with the secretory alkaline phosphatase (human TSHR with rat LH-CGR subsequence); assay: bridge assay: standard at 0.7 IU/L on plate-bound TSH receptor chimera B, detected with SEAP-chimera B, chemiluminescence
[6] = biological target: truncated TSH receptor chimera B (extracellular portion) fused with the secretory alkaline phosphatase (human TSHR with rat LH-CGR subsequence); assay: bridge assay: standard at 0.5 IU/L on plate-bound TSH receptor chimera B, detected with SEAP-chimera B; RLU relative to zero serum
[7] = biological target: truncated TSH receptor chimera B (extracellular portion) fused with the secretory alkaline phosphatase (human TSHR with rat LH-CGR subsequence); assay: bridge assay: standard at 0.5 IU/L on plate-bound TSH receptor chimera B, detected with SEAP-chimera B, chemiluminescence
[8] = biological target: truncated TSH receptor chimera B (extracellular portion) fused with the secretory alkaline phosphatase (human TSHR with rat LH-CGR subsequence); assay: bridge assay: standard at 0.9 IU/L on plate-bound TSH receptor chimera B, detected with SEAP-chimera B; RLU relative to zero serum
[9] = biological target: truncated TSH receptor chimera B (extracellular portion) fused with the secretory alkaline phosphatase (human TSHR with rat LH-CGR subsequence); assay: bridge assay: standard at 0.1 IU/L on plate-bound TSH receptor chimera B, detected with SEAP-chimera B; RLU relative to zero serum
[10] = biological target: truncated TSH receptor chimera B (extracellular portion) fused with the secretory alkaline phosphatase (human TSHR with rat LH-CGR subsequence); assay: bridge assay: standard at 15.0 IU/L on plate-bound TSH receptor chimera B, detected with SEAP-chimera B, chemiluminescence
[11] = biological target: truncated TSH receptor chimera B (extracellular portion) fused with the secretory alkaline phosphatase (human TSHR with rat LH-CGR subsequence); assay: bridge assay: standard at 5.0 IU/L on plate-bound TSH receptor chimera B, detected with SEAP-chimera B, chemiluminescence
[12] = biological target: truncated TSH receptor chimera B (extracellular portion) fused with the secretory alkaline phosphatase (human TSHR with rat LH-CGR subsequence); assay: bridge assay: standard at 30.0 IU/L on plate-bound TSH receptor chimera B, detected with SEAP-chimera B; RLU relative to zero serum
[13] = biological target: truncated TSH receptor chimera B (extracellular portion) fused with the secretory alkaline phosphatase (human TSHR with rat LH-CGR subsequence); assay: bridge assay: standard at 0.3 IU/L on plate-bound TSH receptor chimera B, detected with SEAP-chimera B; RLU relative to zero serum
[14] = biological target: truncated TSH receptor chimera B (extracellular portion) fused with the secretory alkaline phosphatase (human TSHR with rat LH-CGR subsequence); assay: bridge assay: standard at 2.0 IU/L on plate-bound TSH receptor chimera B, detected with SEAP-chimera B; RLU relative to zero serum
[15] = biological target: truncated TSH receptor chimera B (extracellular portion) fused with the secretory alkaline phosphatase (human TSHR with rat LH-CGR subsequence); assay: bridge assay: standard at 0.6 IU/L on plate-bound TSH receptor chimera B, detected with SEAP-chimera B; RLU relative to zero serum
[16] = biological target: truncated TSH receptor chimera B (extracellular portion) fused with the secretory alkaline phosphatase (human TSHR with rat LH-CGR subsequence); assay: bridge assay: standard at 2.0 IU/L on plate-bound TSH receptor chimera B, detected with SEAP-chimera B, chemiluminescence
[17] = biological target: truncated TSH receptor chimera B (extracellular portion) fused with the secretory alkaline phosphatase (human TSHR with rat LH-CGR subsequence); assay: bridge assay: standard at 0.8 IU/L on plate-bound TSH receptor chimera B, detected with SEAP-chimera B, chemiluminescence
[18] = biological target: truncated TSH receptor chimera B (extracellular portion) fused with the secretory alkaline phosphatase (human TSHR with rat LH-CGR subsequence); assay: bridge assay: standard at 0.2 IU/L on plate-bound TSH receptor chimera B, detected with SEAP-chimera B; RLU relative to zero serum
[19] = biological target: truncated TSH receptor chimera B (extracellular portion) fused with the secretory alkaline phosphatase (human TSHR with rat LH-CGR subsequence); assay: bridge assay: standard at 5.0 IU/L on plate-bound TSH receptor chimera B, detected with SEAP-chimera B; RLU relative to zero serum
[20] = biological target: truncated TSH receptor chimera B (extracellular portion) fused with the secretory alkaline phosphatase (human TSHR with rat LH-CGR subsequence); assay: bridge assay: standard at 0.4 IU/L on plate-bound TSH receptor chimera B, detected with SEAP-chimera B, chemiluminescence
[21] = biological target: truncated TSH receptor chimera B (extracellular portion) fused with the secretory alkaline phosphatase (human TSHR with rat LH-CGR subsequence); assay: bridge assay: standard at 1.0 IU/L on plate-bound TSH receptor chimera B, detected with SEAP-chimera B; RLU relative to zero serum
[22] = biological target: truncated TSH receptor chimera B (extracellular portion) fused with the secretory alkaline phosphatase (human TSHR with rat LH-CGR subsequence); assay: bridge assay: standard at 50.0 IU/L on plate-bound TSH receptor chimera B, detected with SEAP-chimera B; RLU relative to zero serum
[23] = biological target: truncated TSH receptor chimera B (extracellular portion) fused with the secretory alkaline phosphatase (human TSHR with rat LH-CGR subsequence); assay: bridge assay: standard at 0.2 IU/L on plate-bound TSH receptor chimera B, detected with SEAP-chimera B, chemiluminescence
[24] = biological target: truncated TSH receptor chimera B (extracellular portion) fused with the secretory alkaline phosphatase (human TSHR with rat LH-CGR subsequence); assay: bridge assay: standard at 0.9 IU/L on plate-bound TSH receptor chimera B, detected with SEAP-chimera B, chemiluminescence
[25] = biological target: truncated TSH receptor chimera B (extracellular portion) fused with the secretory alkaline phosphatase (human TSHR with rat LH-CGR subsequence); assay: bridge assay: standard at 0.8 IU/L on plate-bound TSH receptor chimera B, detected with SEAP-chimera B; RLU relative to zero serum
[26] = biological target: truncated TSH receptor chimera B (extracellular portion) fused with the secretory alkaline phosphatase (human TSHR with rat LH-CGR subsequence); assay: bridge assay: standard at 0.3 IU/L on plate-bound TSH receptor chimera B, detected with SEAP-chimera B, chemiluminescence
[27] = biological target: truncated TSH receptor chimera B (extracellular portion) fused with the secretory alkaline phosphatase (human TSHR with rat LH-CGR subsequence); assay: bridge assay: standard at 50.0 IU/L on plate-bound TSH receptor chimera B, detected with SEAP-chimera B, chemiluminescence
[28] = biological target: truncated TSH receptor chimera B (extracellular portion) fused with the secretory alkaline phosphatase (human TSHR with rat LH-CGR subsequence); assay: bridge assay: standard at 0.1 IU/L on plate-bound TSH receptor chimera B, detected with SEAP-chimera B, chemiluminescence
[29] = biological target: truncated TSH receptor chimera B (extracellular portion) fused with the secretory alkaline phosphatase (human TSHR with rat LH-CGR subsequence); assay: bridge assay: standard at 0.4 IU/L on plate-bound TSH receptor chimera B, detected with SEAP-chimera B; RLU relative to zero serum
[30] = biological target: truncated TSH receptor chimera B (extracellular portion) fused with the secretory alkaline phosphatase (human TSHR with rat LH-CGR subsequence); assay: bridge assay: standard at 0.7 IU/L on plate-bound TSH receptor chimera B, detected with SEAP-chimera B; RLU relative to zero serum

Sequence of truncated TSH receptor chimera B (extracellular portion) fused with the secretory alkaline phosphatase (human TSHR with rat LH-CGR subsequence) (chain, as listed by the source mutant): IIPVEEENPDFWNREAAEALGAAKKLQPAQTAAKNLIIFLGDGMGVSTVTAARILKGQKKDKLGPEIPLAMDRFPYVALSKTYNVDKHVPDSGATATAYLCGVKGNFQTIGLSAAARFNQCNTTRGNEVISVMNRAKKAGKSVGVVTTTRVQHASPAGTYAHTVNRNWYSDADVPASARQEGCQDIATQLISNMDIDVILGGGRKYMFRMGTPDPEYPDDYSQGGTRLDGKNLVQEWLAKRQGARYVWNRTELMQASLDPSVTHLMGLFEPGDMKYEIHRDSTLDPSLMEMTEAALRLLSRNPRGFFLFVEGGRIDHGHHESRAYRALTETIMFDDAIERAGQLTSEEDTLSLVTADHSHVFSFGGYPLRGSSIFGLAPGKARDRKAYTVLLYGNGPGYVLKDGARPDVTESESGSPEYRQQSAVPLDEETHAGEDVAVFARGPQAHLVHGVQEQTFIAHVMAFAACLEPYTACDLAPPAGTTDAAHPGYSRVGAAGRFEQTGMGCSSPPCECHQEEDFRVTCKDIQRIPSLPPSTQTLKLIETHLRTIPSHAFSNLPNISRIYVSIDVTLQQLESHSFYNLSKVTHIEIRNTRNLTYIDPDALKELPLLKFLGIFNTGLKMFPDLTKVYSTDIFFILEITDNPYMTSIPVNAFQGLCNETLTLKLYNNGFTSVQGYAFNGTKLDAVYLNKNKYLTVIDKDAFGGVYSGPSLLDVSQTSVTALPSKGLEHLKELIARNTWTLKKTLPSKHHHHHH

Work on “standard solution WHO 90/672 with a standardized concentration of autoimmune antibody (TSH receptor auto-antibody standard)” yielded an RLU Average n = 3 [1] of 117000 RLU, an RLU Average n = 3 [2] of 3.77e+06 RLU and an RLU Average n = 3 [3] of 183000 RLU. The B/B0 [4] was 361, the RLU Average n = 3 [5] was 136000 RLU and the B/B0 [6] was 14.3. The RLU Average n = 3 [7] was 98400 RLU, the B/B0 [8] was 27.9 and the B/B0 [9] was 4.19. The RLU Average n = 3 [10] was 2.48e+06 RLU, the RLU Average n = 3 [11] was 939000 RLU and the B/B0 [12] was 548. It also gave a B/B0 [13] of 9.57, a B/B0 [14] of 55.5 and a B/B0 [15] of 16.9. The RLU Average n = 3 [16] was 382000 RLU, the RLU Average n = 3 [17] was 166000 RLU and the B/B0 [18] was 6.77. The B/B0 [19] was 136, the RLU Average n = 3 [20] was 81500 RLU and the B/B0 [21] was 26.6. The B/B0 [22] was 704, the RLU Average n = 3 [23] was 46600 RLU and the RLU Average n = 3 [24] was 192000 RLU. It also gave a B/B0 [25] of 24.1, an RLU Average n = 3 [26] of 65800 RLU and an RLU Average n = 3 [27] of 4.85e+06 RLU. The RLU Average n = 3 [28] was 28800 RLU, the B/B0 [29] was 11.8 and the B/B0 [30] was 19.7.
